The values below are quoted from earlier work in patent US5998408A, “Triterpene derivatives with immunosuppressant activity” (Merck & Co., Inc., priority 1997, dated 1999).

Usually IC50 stands for the concentration that gives 50% inhibition.

The target of this data set is T1, Kv 1.3 channels (CHO cells transfected with Kv 1.3 channels) (Homo sapiens, UniProt P22001).
T1 construct: expressed in transfected cells; host or cells: CHO cells
The note with it: stated property of the reference blocker used to set the efflux window.

T1 sequence (P22001 whole entry): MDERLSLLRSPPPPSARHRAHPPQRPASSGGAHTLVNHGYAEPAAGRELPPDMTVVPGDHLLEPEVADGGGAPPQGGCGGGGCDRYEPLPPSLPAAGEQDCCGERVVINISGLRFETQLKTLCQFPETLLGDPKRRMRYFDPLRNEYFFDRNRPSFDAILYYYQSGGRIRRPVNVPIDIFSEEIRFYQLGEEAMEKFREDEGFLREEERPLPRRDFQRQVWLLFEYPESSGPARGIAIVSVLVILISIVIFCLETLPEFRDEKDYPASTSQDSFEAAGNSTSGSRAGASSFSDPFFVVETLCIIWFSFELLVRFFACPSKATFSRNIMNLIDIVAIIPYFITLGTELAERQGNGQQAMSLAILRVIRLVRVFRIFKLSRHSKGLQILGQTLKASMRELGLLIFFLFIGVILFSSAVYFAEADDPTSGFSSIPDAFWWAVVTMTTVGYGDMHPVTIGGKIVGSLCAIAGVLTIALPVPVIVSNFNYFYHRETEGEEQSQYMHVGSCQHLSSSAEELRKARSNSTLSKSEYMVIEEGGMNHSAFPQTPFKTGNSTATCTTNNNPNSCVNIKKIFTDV

As to “margatoxin (TIINVKCTSPKQCLPPCKAQFGQSAGAKCMNGKCKCYPH; UniProt P40755 1-39, looked up)”, the half-maximal inhibitory concentration (IC50) is 0.1 nM.
